Measured values reported in patent US11325966.

Tests used:
Test in all cases: cell-based or functional assay
[1] = target: HIV-1 envelope (Env) of pseudovirus 3301.v1.c24 (HIV-1)
[2] = target: HIV-1 envelope (Env) of pseudovirus C4118.c09 (HIV-1)
[3] = target: HIV-1 envelope (Env) of pseudovirus CAAN5342.A2 (HIV-1)
[4] = target: HIV-1 envelope (Env) of pseudovirus CNE52 (HIV-1)
[5] = target: HIV-1 envelope (Env) of pseudovirus T255-34 (HIV-1)
[6] = target: HIV-1 envelope (Env) of pseudovirus X1254_c3 (HIV-1)
[7] = target: HIV-1 envelope (Env) of pseudovirus YU2_N160K (HIV-1) (UniProt P35961)

BG1 (antibody)
IC50 in TZM-bl assay [1]: > 30 µg/mL | IC80 in TZM-bl assay [1]: > 30 µg/mL | IC50 in TZM-bl assay [2]: 22.8 µg/mL | IC80 in TZM-bl assay [2]: > 30 µg/mL | IC50 in TZM-bl assay [3]: > 30 µg/mL | IC80 in TZM-bl assay [3]: > 30 µg/mL | IC50 in TZM-bl assay [4]: 0.975 µg/mL | IC80 in TZM-bl assay [4]: 5.01 µg/mL | IC50 in TZM-bl assay [5]: 11.6 µg/mL | IC80 in TZM-bl assay [5]: > 30 µg/mL | IC50 in TZM-bl assay [6]: 0.048 µg/mL | IC80 in TZM-bl assay [6]: 0.086 µg/mL | IC50 in TZM-bl assay [7]: > 30 µg/mL | IC80 in TZM-bl assay [7]: > 30 µg/mL
